Tested on: MS2 coat protein
Experiment: apparent KD of MS2 coat protein; designed switch direction (-1 OFF switch, 1 ON switch): -1; higher = weaker reporter binding
In short: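 Designed RNA switches with common flanks were transcribed on Illumina chips by stalled E. coli RNA polymerase and titrated with SNAP-549-labelled MS2 coat protein, from 0.7 or 1.5 nM doubling to 3 µM, in Tris-HCl pH 7.5 buffer with KCl, MgCl2, BSA, DTT, tRNA and Tween-20. Steps lasted 0.8–1.5 h (lowest) to 10–20 min (highest). Titrations ran without input, with 200 uM small-molecule ligand, or with an oligonucleotide input. Normalised cluster fluorescence was curve-fitted, and apparent KD is the per-design median over clusters.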

[1] = input ligand: microRNA oligo, concentration not stated
[2] = Eterna round: R95, input ligand: FMN 200 uM
[3] = Eterna round: R95, input ligand: microRNA oligo, concentration not stated
[4] = Eterna round: R95, input ligand: none

| Sequence | apparent KD of MS2 coat protein (input ligand: FMN 200 uM) [nM] | apparent KD of MS2 coat protein [1] [nM] | apparent KD of MS2 coat protein (input ligand: none) [nM] | further results |
| --- | --- | --- | --- | --- |
| UAGCAUUGCCAAAGGUAGUGCUUUACAUGAGGAUCACCCAUGUAGGAUAUGGUAGGCAAAGCUUACCAGAAGGACAUGAUAAUU [Mat - Exclusion NG 3 - Mod of JL - D12] (Eterna round: R96, puzzle: Exclusion NG 3) | 167 | 45.1 | 56.1 |  |
| UAGCAUUGCCUUUGGUAGUGCUUUACAUGAGGAUCACCCAUGUAGGAUAUGGUAGGCAAAGCUUACCAGAAGGACAUGAUAAUU [Mat - Exclusion NG 3 - Mod of JL - D11] (Eterna round: R96, puzzle: Exclusion NG 3) | 198 | 51.6 | 76 |  |
| UAGUGACAUGAGGAUCACCCAUGUGAGGAUAUAGUGAGAGAAAAAAGGAGAGAGAGGACUAGAAGGCACAGUGA [JR_Exclu1_Sub032] (puzzle: Exclusion 1) |  |  |  | apparent KD of MS2 coat protein [2]: 76.6 nM; apparent KD of MS2 coat protein [3]: 52.4 nM; apparent KD of MS2 coat protein [4]: 92.7 nM |
| UAGUUCUGAGGAUAUUCUCCAAAGCACAUGAGGAUCACCCAUGUCCAGUUAUGGCUUUCUGAAGAAGGCAGUCUUA [Eternabot (L2) Solution 49] (Eterna round: R97, puzzle: Exclusion 5) | 87.9 |  | 36.7 |  |
| UAUAACCGAGGAUAUACAUGAGGAUCACCCAUGUAAUGUAGUAUAGUGUAUGUAAGAUGUAGAAGGUGGGAUGU (Eterna round: R97, puzzle: Exclusion 3) | 49.8 |  | 59 |  |
| UAUAAGGUAGGAUAUACGAAUAAAUAGGGUAGAAUAAUAACACAUGAGGAUCACCCAUGUAGAAGGACCAAUAG [Mat - Exclusion 2 - Mod of my Tesla design - D27] (puzzle: Exclusion 2) |  |  |  | apparent KD of MS2 coat protein [2]: 58.9 nM; apparent KD of MS2 coat protein [3]: 21 nM; apparent KD of MS2 coat protein [4]: 17.2 nM |
| UAUACACAUGAGGAUCACCCAUGUGAGGAUAUGUACAACAACCCGACGGUGUUGUUGUACAGAAGGCACAAAUA [JR_Exclusion1_Sub027] (puzzle: Exclusion 1) |  |  |  | apparent KD of MS2 coat protein [3]: 78.9 nM |
| UAUAGGCUAGGAUAUACAACACUUGGUUCGAAUGUUUGGAGACAUGAGGAUCACCCAUGUAGAAGGAGCAUUUC [Leleis] (Eterna round: R96, puzzle: Exclusion 2) | 264 | 54 | 66.5 |  |
| UAUAUAUAGUAAGGAUAUGUAACUAUUUUAUAAACAGAAGGUACUGACAUGAGGAUCACCCAUGUUUUAGUGUGGGCAUGUAGA [JMF's solution 29] (Eterna round: R96, puzzle: Exclusion NG 1) |  | 72.6 |  |  |
| UAUAUAUAGUAAGGAUAUGUAAUUAUUUCAUAAACAGAAGGUACUGACAUGAGGAUCACCCAUGUUUUAGUGUGGGCAUGUAGA [JMF's solution 43] (Eterna round: R96, puzzle: Exclusion NG 1) |  | 60.2 |  |  |
| UAUAUAUAGUAAGGAUAUGUAAUUAUUUUAGAAACAGAAGGUACUGACAUGAGGAUCACCCAUGUUUUAGUGUGGGCAUGUAGA [JMF's solution 45] (Eterna round: R96, puzzle: Exclusion NG 1) |  | 69.9 |  |  |
| UAUAUAUAGUAAGGAUAUGUAUAAAUUUUAUAAACAGAAGGUACUGACAUGAGGAUCACCCAUGUUUUAGUGUGGGCAUGUAGA [JMF's solution 52] (Eterna round: R96, puzzle: Exclusion NG 1) |  | 74.6 |  |  |
| UAUAUAUAGUAAGGAUAUGUAUAUAUUUUACAAACAGAAGGUACUGACAUGAGGAUCACCCAUGUUUUAGUGUGGGCAUGUAGA [JMF's solution 68] (Eterna round: R96, puzzle: Exclusion NG 1) |  | 43.3 |  |  |
| UAUAUAUAGUAAGGAUAUGUAUAUUUUUUAUAAACAGAAGGUACUGACAUGAGGAUCACCCAUGUUUUAGUGUGGGCAUGUAGA [JMF's solution 53] (Eterna round: R96, puzzle: Exclusion NG 1) |  | 63.8 |  |  |
